The source of these data is patent US8685668B2, “Method of expressing proteins with disulfide bridges” (University of Southern California, priority 2005, dated 2014).

The target of series [1] is T1, GPIIb/IIIa (integrin αIIbβ3) (Homo sapiens, UniProt P05106+P08514).
T1 construct: endogenous in cells; host or cells: platelets in fresh platelet-rich plasma
Nature of the series: ADP-induced platelet aggregation inhibition assay in platelet-rich plasma. It counts as cell-based. Particulars: inhibitor added one minute prior to ADP (1 μM). The procedure:
Different concentrations of native CN, Vicrostatin (VN), or rCN conformer were incubated with platelet-rich plasma. Addition of ADP induces platelet aggregation; VN, rCN conformer, or native CN were added one minute prior to ADP.
The recombinant CN products were evaluated for biological activity by a platelet aggregation inhibition assay. According to this assay, CN binding to GPIIb/IIIa (integrin αIIbβ3) in an RGD dependent manner inhibits ADP induced platelet aggregation (Trikha, Rote et al. 1994). In this assay, potential inhibitors are added to fresh platelet-rich plasma, and after minute, ADP is added to a final concentration of 1 μM to induce aggregation. If inhibitor is present, functional aggregation will not occur. The IC50 is defined as the concentration at which 50% of the activity is inhibited, and is used as a measure of the potency of an inhibitor.

In series [2] the test system is MDA-MB-435 breast carcinoma cells. Nature of the series: Inhibition of MDA-MB-435 cell adhesion to immobilized vitronectin (MTS readout). It is filed as cell-based, human. The conditions noted are these: 0-1000 nM, 30 min pretreatment, adhesion 1 hr at 25° C. The procedure: (§1) Pretreated cells were allowed to adhere for 1 hr at 25° C., and after non-adherent cells were washed away, the number of adherent cells for each condition was estimated using the MTS cell viability assay.
(§2) Pretreated cells were allowed to adhere for 1 hr at 25° C., and after non-adherent cells were washed away, the number of adherent cells for each condition was estimated using the MTS cell viability assay. In the cell invasion assay, an invasion chamber consisting of cell culture inserts that fit into 24-well tissue culture plate has been utilized. The inserts contain an 8 μm-pore size polycarbonate membrane, over which a thin layer of ECMatrix™ was applied. The ECMatrix™ serves as an in vitro reconstituted basement membrane and is a solid gel of ECM proteins prepared from the Engelbreth Holm-Swarm (EHS) mouse tumor. The ECM layer occludes the membranes pores, blocking non-invasive cells to migrate through. […] At the 8 hr time point the cells that invaded through the pores into the lower chamber were measured. The numbers of invaded cells for each condition were approximated by quantitating the retrieved labeled DNA using a fluorescent plate reader. The results were calculated in % invasion, where the untreated control was considered as 100% invasion.

A short description of series [3]: Liposome encapsulation, size and stability (BCA protein assay after liposome disruption). It is filed as physicochemical. The procedure: Endotoxin-free VN containing liposomes (referred to as LVN) and endotoxin-free native CN containing liposomes (referred to as LCN) were prepared utilizing a probe sonication previously described (Fujii, Chang et al. 1997). Briefly, the lipids (disteroylphosphatidylcholine, cholesterol and polyethylene glycol derivatized lipid) were dissolved in a chloroform/methanol solution. Thin lipid films were created by pipetting aliquots of the lipid solution into round bottom glass tubes followed by solvent evaporation at 65° C. under a stream of nitrogen gas. The films were placed under vacuum for at least 24 hours to remove residual organic solvent. Liposomes formed following hydration of the lipid films with native CN or VN dissolved in 10 mM sodium phosphate, 9% sucrose, pH 7.2. The mixture was incubated at 65° C. for 5-10 minutes. Hydration was followed by probe sonication until the suspension was translucent. […]
The concentration of liposome entrapped CN/VN was determined by disruption of the liposomes with chloroform/methanol/water (10:40:50) followed by centrifugation at 14,000×g. The supernatant was analyzed for CN/VN concentration using BCA protein assay (Smith, Krohn et al. 1985). The encapsulation efficiency was assessed by BCA protein determination following disruption of the LrCN with a solution of H2O:methanol:chloroform.

Series [4] deals with MDA-MB-435 breast carcinoma cells. Nature of the series: Inhibition of MDA-MB-435 cell adhesion to immobilized fibronectin (MTS readout). The conditions noted are these: 0-1000 nM, 30 min pretreatment, adhesion 1 hr at 25° C. It counts as cell-based, human. The procedure:
as §1, §2

B1: contortrostatin (protein)
chain: DAPANPCCDAATCKLTTGSQCADGLCCDQCKFMKEGTVCRRARGDDLDDYCNGISAGCPRNPFH
As to B1, in series [1], the half-maximal inhibitory concentration (IC50) is ~60 nM. The “inhibition of MDA-MB-435 cell adhesion to immobilized vitronectin (Vn)” value in series [2] was “inhibited adhesion”. In addition, the “protein in the encapsulation solution entrapped within the liposomes” value in series [3] was found to be 80%. The “inhibition of MDA-MB-435 cell adhesion to immobilized fibronectin (Fn)” value in series [4] was “inhibited adhesion”.

One may read the IC50 as the concentration that inhibits the measured activity by half.
